In the RNAGym collection of RNA variant scans (doi:10.7554/elife.80360):

B1: HDV Ribozyme (parent)
chain: GGCCGGCAUGGUCCCAGCCUCCUCGCUGGCGCCGGCUGGGCAACAUUCCGAGGGGACCGUCCCCUCGGUAAUGGCGAAUGGGACCCA

Variants of: B1
Experiment: self-cleavage, relative activity (ratio to wild type); higher = more cleavage; co-transcriptional

| Variant | self-cleavage |
| --- | --- |
| GGCCGGAAUGGUCCCAGCCUCCUCGCUGGCGCCGGCUGGGCAACAUUCCGAGGGGACCGUCCCCUCGGUAAUGGAGAAUGGGACCCA | 0.0923 |
| GGCCGGCAUGGUCCCAGCCACCUCGCUGGCGCCGGCUGGGCAACAUUCCGAGGGGACCGUCCCUUCGGUAAUGGCGAAUGGGACCCA | 0.138 |
| GGCCGGCUUGGUCCCAGCCUCCUCGCUGGCGCCGGCUGGGAAACAUUCCGAGGGGACCGUCCCCUCGGUAAUGGCGAAUGGGACCCA | 0.443 |
| UGCUGGCAUGGUCCCAGCCUCCUCGCUGGCGCCGGCUGGGCAACAUUCCGAGGGGACCGUCCCCUCGGUAAUGGCGAAUGGGACCCA | 0.251 |
| GGCCGGCAUGGUCCCAACCUCCUCGCUGGCGCCGGCUGGGCAACAUUCCUAGGGGACCGUCCCCUCGGUAAUGGCGAAUGGGACCCA | 0.815 |
| GGCCGGCAUGGUCCCAGCCUCCUCGCUGGCGCCGGCUGUGCAACAUUCCGAGGGGACCGUCCCCUCGGUACUGGCGAAUGGGACCCA | 0.308 |
| GGCCGGCAUGGUCCCAGCCUCCUCGCUGGCGCCGGCUGGGCAACAUUCCGAGGGGACCGUCCUCUCGUUAAUGGCGAAUGGGACCCA | 0.8 |
| GGCCGGCAUUGUCCCAGCCUCCUCGCUGGCGCCAGCUGGGCAACAUUCCGAGGGGACCGUCCCCUCGGUAAUGGCGAAUGGGACCCA | 0.259 |
| GGCCGGCAUGGUCCCAGCCUCCUCGCUGGCGCCGGCUGGGCAAUAGUCCGAGGGGACCGUCCCCUCGGUAAUGGCGAAUGGGACCCA | 0.712 |
| GGCCGGCACGGUCCCACCCUCCUCGCUGGCGCCGGCUGGGCAACAUUCCGAGGGGACCGUCCCCUCGGUAAUGGCGAAUGGGACCCA | 0.415 |
| GGCCGGCAUGGUCCCAGGCUCCUCGCUGGCGCCGGCUGGGCAACAUUCCGAGGGGACCGUCCUCUCGGUAAUGGCGAAUGGGACCCA | 0.0386 |
| GGCCGGCAUGGCCCCAGCCUCCUCGCUGGCGCCGGCUGGGCAACAUUCCGAGGGGACCGUCCCCUCGGUAAUGGCGAAUGGGACCGA | 0.104 |
| GGCCGGCAUGGUCCCAGCCUCCUCGCUGGCGCCGGUUGGACAACAUUCCGAGGGGACCGUCCCCUCGGUAAUGGCGAAUGGGACCCA | 0.831 |
| GGCCAGCAUGGUCCCAGCCUCCUCGGUGGCGCCGGCUGGGCAACAUUCCGAGGGGACCGUCCCCUCGGUAAUGGCGAAUGGGACCCA | 0.427 |
| GGCCCGCAUGGUCCCAGCCUCCUCGCUGGCGCCGGCUGGGCAACAUUCCGAGGGGAGCGUCCCCUCGGUAAUGGCGAAUGGGACCCA | 0.35 |
| GGCCGGCAUGGUCCCAGCCUCCUCGCUGGCGCCGGCUAGGCAACAUUCCGAGGGGACCGUCCCCUCGGUAAUGGCGAAUUGGACCCA | 0.156 |

| Variant | self-cleavage |
| --- | --- |
| GGCCGGCAUGGUCCCAGCCUCCUCGCUGGCGCCGGCCGGGCAACAUUCCGAGGGGACCGUCCCCUCGGUAAUGGCGAAUGGGACUCA | 1.01 |
| GGCCGGGAUGGUCCCAGACUCCUCGCUGGCGCCGGCUGGGCAACAUUCCGAGGGGACCGUCCCCUCGGUAAUGGCGAAUGGGACCCA | 0.0639 |
| GACCGGCAUGGUCCCAGCCUCCUCUCUGGCGCCGGCUGGGCAACAUUCCGAGGGGACCGUCCCCUCGGUAAUGGCGAAUGGGACCCA | 0.161 |
| GGCCGGCAUGGUCCCAGCCUCCUCGGUGGCGCCGGCUGGGCAACAUUCCGAGGGGACCGUCCCCUCGGUAGUGGCGAAUGGGACCCA | 0.475 |
| GGCCGGCAUGGUCCCAGCCUCGUCGCUGGCGCCGGCUGGGCAACAUUCCGAGGGGACCGUCCCAUCGGUAAUGGCGAAUGGGACCCA | 0.125 |
| GGCCGGCACGGUCCCAGCCCCCUCGCUGGCGCCGGCUGGGCAACAUUCCGAGGGGACCGUCCCCUCGGUAAUGGCGAAUGGGACCCA | 0 |
| GGCCGGCAUGGUCCCAUCCUCCUCGCUGGCGCCGGCUGGGCAACAUUCCGAGGGGACCGUCCCCUCGGUAAUGUCGAAUGGGACCCA | 0.217 |
| GGCCGGCAUGGUCCCAGCCUCCUCGCUGGCGCCGGCUGGGCAACAUUACGAAGGGACCGUCCCCUCGGUAAUGGCGAAUGGGACCCA | 0.926 |
| GGCCGGCAUGGUCCCAGCCUCCUCGCUGGCGCCGGCUGGGCAACAUUCCGAGGGGGCCGUCCCCUCGGUAAUGGCGAGUGGGACCCA | 0.615 |
| GGCCGGCAUGGUCCCAGCCUCCUCACUGGCGCCGGCUGGGCAACAUUCCGAGGGGACCGUCCCCUCGUUAAUGGCGAAUGGGACCCA | 0.247 |
| GGCCGGCAUGAUCCCAGCCUCCUCGCUGGCGCCGGCUGGGCAAUAUUCCGAGGGGACCGUCCCCUCGGUAAUGGCGAAUGGGACCCA | 0.0723 |
| GGCCGGCAUAGUCCCAGCCUCCUCGCUGGCGCCGGCUGGGCAACAUUCCGAGGGGACCGUCCGCUCGGUAAUGGCGAAUGGGACCCA | 0.566 |
| GGCCGGCAUGGUCCCAGCCUCCUCGCUUGCGCCGGCUGGGCAACAUUCCGAGGCGACCGUCCCCUCGGUAAUGGCGAAUGGGACCCA | 0.234 |
| GGCCGGCUUGGUCCCAGCCUCCUCGCCGGCGCCGGCUGGGCAACAUUCCGAGGGGACCGUCCCCUCGGUAAUGGCGAAUGGGACCCA | 0.196 |
| GGCCGGCAUGGUCCCCGCAUCCUCGCUGGCGCCGGCUGGGCAACAUUCCGAGGGGACCGUCCCCUCGGUAAUGGCGAAUGGGACCCA | 0.277 |
| GGCCGGCAUGGUCCCAGCCUCCUCGCUGGCGCCGGCUGGGCAACAUUCCGAGGGGACCGUCCCCUCGUAAAUGGCGAAUGGGACCCA | 0.912 |
